Experiments:
JR-CSF N283A [1] = target: JR-CSF N283A
BG505 T372A [2] = target: BG505 T372A
BG505 T373A [3] = target: BG505 T373A
BG505 G471A [4] = target: BG505 G471A
BG505 L369A [5] = target: BG505 L369A
JR-CSF S365A [6] = target: JR-CSF S365A
BG505 K121A [7] = target: BG505 K121A
BG505 N279A [8] = target: BG505 N279A
BG505 N332T [9] = target: BG505 N332T
JR-CSF N362A [10] = target: JR-CSF N362A
JR-CSF T198A [11] = target: JR-CSF T198A
JR-CSF N276A [12] = target: JR-CSF N276A
BG505 N363A [13] = target: BG505 N363A
JR-CSF R476A [14] = target: JR-CSF R476A
BG505 R476A [15] = target: BG505 R476A
JR-CSF S199A [16] = target: JR-CSF S199A
BG505 K282A [17] = target: BG505 K282A
[18] = target: JR-CSF Env on JR-CSF pseudovirus
JR-CSF N283A [19] = assay: ELISA, gp120 captured from lysed virions
BG505 G471A [20] = assay: ELISA, gp120 captured from lysed virions
BG505 G472A = assay: ELISA, gp120 captured from lysed virions
BG505 N197A = assay: ELISA, gp120 captured from lysed virions
[21] = target: JR-CSF gp120 captured from lysed virions (HIV isolate JR-CSF) (UniProt P20871); assay: ELISA, gp120 captured from lysed virions
BG505 V371A = assay: ELISA, gp120 captured from lysed virions
JR-CSF N262A = assay: ELISA, gp120 captured from lysed virions
JR-CSF G473A = assay: ELISA, gp120 captured from lysed virions
JR-CSF E370A = assay: ELISA, gp120 captured from lysed virions
BG505 N283A = assay: ELISA, gp120 captured from lysed virions
JR-CSF S365A [22] = assay: ELISA, gp120 captured from lysed virions
BG505 K121A [23] = assay: ELISA, gp120 captured from lysed virions
JR-CSF N362A [24] = assay: ELISA, gp120 captured from lysed virions
JR-CSF T198A [25] = assay: ELISA, gp120 captured from lysed virions
JR-CSF N276A [26] = assay: ELISA, gp120 captured from lysed virions
JR-CSF T373A = assay: ELISA, gp120 captured from lysed virions
BG505 N363A [27] = assay: ELISA, gp120 captured from lysed virions
JR-CSF R476A [28] = assay: ELISA, gp120 captured from lysed virions
BG505 R476A [29] = assay: ELISA, gp120 captured from lysed virions
JR-CSF S199A [30] = assay: ELISA, gp120 captured from lysed virions
BG505 K282A [31] = assay: ELISA, gp120 captured from lysed virions
JR-CSF G366A = assay: ELISA, gp120 captured from lysed virions
JR-CSF N279A = assay: ELISA, gp120 captured from lysed virions
JR-CSF K207A = assay: ELISA, gp120 captured from lysed virions
JR-CSF G472A = assay: ELISA, gp120 captured from lysed virions
BG505 L179A = assay: ELISA, gp120 captured from lysed virions
BG505 G366A = assay: ELISA, gp120 captured from lysed virions
BG505 G367A = assay: ELISA, gp120 captured from lysed virions
JR-CSF D368A = assay: ELISA, gp120 captured from lysed virions
JR-CSF G471A = assay: ELISA, gp120 captured from lysed virions
JR-CSF T372A = assay: ELISA, gp120 captured from lysed virions
BG505 T372A [32] = assay: ELISA, gp120 captured from lysed virions
[33] = target: BG505 gp120 captured from lysed virions (HIV isolate BG505); assay: ELISA, gp120 captured from lysed virions
BG505 T373A [34] = assay: ELISA, gp120 captured from lysed virions
JR-CSF V371A = assay: ELISA, gp120 captured from lysed virions
BG505 L369A [35] = assay: ELISA, gp120 captured from lysed virions
BG505 S364A = assay: ELISA, gp120 captured from lysed virions
BG505 E370A = assay: ELISA, gp120 captured from lysed virions
BG505 S365A = assay: ELISA, gp120 captured from lysed virions
BG505 N279A [36] = assay: ELISA, gp120 captured from lysed virions
BG505 N332T [37] = assay: ELISA, gp120 captured from lysed virions

**Q.** Which results are given for PGT121 (antibody)?
**A.** IC50, pseudovirus neutralization (JR-CSF N283A [1]): 0.017 µg/mL; IC50, pseudovirus neutralization (BG505 T372A [2]): 0.019 µg/mL; IC50, pseudovirus neutralization (BG505 T373A [3]): 0.017 µg/mL; IC50, pseudovirus neutralization (BG505 G471A [4]): 0.014 µg/mL; IC50, pseudovirus neutralization (BG505 L369A [5]): 0.021 µg/mL; IC50, pseudovirus neutralization (JR-CSF S365A [6]): 0.026 µg/mL; IC50, pseudovirus neutralization (BG505 K121A [7]): 0.026 µg/mL; IC50, pseudovirus neutralization (BG505 N279A [8]): 0.02 µg/mL; IC50, pseudovirus neutralization (BG505 N332T [9]): 0.019 µg/mL; IC50, pseudovirus neutralization (JR-CSF N362A [10]): 0.026 µg/mL; IC50, pseudovirus neutralization (BG505 D474A): 0.023 µg/mL; IC50, pseudovirus neutralization (JR-CSF T198A [11]): 0.046 µg/mL; IC50, pseudovirus neutralization (JR-CSF N276A [12]): 0.033 µg/mL; IC50, pseudovirus neutralization (BG505 N363A [13]): 0.026 µg/mL; IC50, pseudovirus neutralization (JR-CSF R476A [14]): 0.014 µg/mL; IC50, pseudovirus neutralization (BG505 R476A [15]): 0.02 µg/mL; IC50, pseudovirus neutralization (JR-CSF S199A [16]): 0.03 µg/mL; IC50, pseudovirus neutralization (BG505 K282A [17]): 0.009 µg/mL; IC50, pseudovirus neutralization [18]: 0.028 µg/mL; EC50 (JR-CSF N283A [19]): 0.615 µg/mL; EC50 (BG505 G471A [20]): 2.5 µg/mL; EC50 (BG505 G472A): 1.4 µg/mL; EC50 (BG505 N197A): 1.3 µg/mL; EC50 [21]: 1.33 µg/mL; EC50 (BG505 V371A): 1.4 µg/mL; EC50 (JR-CSF N262A): 0.947 µg/mL; EC50 (JR-CSF G473A): 0.46 µg/mL; EC50 (JR-CSF E370A): 0.933 µg/mL; EC50 (BG505 N283A): 3.4 µg/mL; EC50 (JR-CSF S365A [22]): 0.935 µg/mL; EC50 (BG505 K121A [23]): 1 µg/mL; EC50 (JR-CSF N362A [24]): 0.747 µg/mL; EC50 (JR-CSF T198A [25]): 0.604 µg/mL; EC50 (JR-CSF N276A [26]): 1.25 µg/mL; EC50 (JR-CSF T373A): 0.643 µg/mL; EC50 (BG505 N363A [27]): 2.3 µg/mL; EC50 (JR-CSF R476A [28]): 0.984 µg/mL; EC50 (BG505 R476A [29]): 1 µg/mL; EC50 (JR-CSF S199A [30]): 1.91 µg/mL; EC50 (BG505 K282A [31]): 1.3 µg/mL; EC50 (JR-CSF G366A): 0.489 µg/mL; EC50 (JR-CSF N279A): 0.535 µg/mL; EC50 (JR-CSF K207A): 0.437 µg/mL; EC50 (JR-CSF G472A): 0.664 µg/mL; EC50 (BG505 L179A): 0.5 µg/mL; EC50 (BG505 G366A): 0.9 µg/mL; EC50 (BG505 G367A): 4 µg/mL; EC50 (JR-CSF D368A): 0.942 µg/mL; EC50 (JR-CSF G471A): 0.619 µg/mL; EC50 (JR-CSF T372A): 0.698 µg/mL

**Q.** How did the EC50 (JR-CSF N283A [19]) turn out when VRC01 (antibody) was run?
**A.** Its EC50 is 0.348 µg/mL.

**Q.** What about the EC50 (BG505 T372A [32]) of the same substance?
**A.** The EC50 was 0.4 µg/mL.

**Q.** And the EC50 [33]?
**A.** The EC50 was 0.2 µg/mL.

**Q.** And the EC50 (BG505 T373A [34])?
**A.** Its EC50 is 0.5 µg/mL.

**Q.** What about the EC50 (BG505 G472A) of the same substance?
**A.** The EC50 was 0.9 µg/mL.

**Q.** What about the EC50 (JR-CSF V371A) of the same substance?
**A.** The EC50 was 1.62 µg/mL.

**Q.** What about the EC50 (BG505 L369A [35]) of the same substance?
**A.** Its EC50 is 1.6 µg/mL.

**Q.** And the EC50 (BG505 N197A)?
**A.** Its EC50 is 0.4 µg/mL.

**Q.** What about the EC50 (BG505 S364A) of the same substance?
**A.** The EC50 was 0.4 µg/mL.

**Q.** What about the EC50 (BG505 V371A) of the same substance?
**A.** The EC50 was 1.3 µg/mL.

**Q.** What about the EC50 (BG505 E370A) of the same substance?
**A.** The EC50 was 1.1 µg/mL.

**Q.** What about the EC50 (BG505 S365A) of the same substance?
**A.** The EC50 was 1.4 µg/mL.

**Q.** And the EC50 (BG505 K121A [23])?
**A.** The EC50 was 0.7 µg/mL.

**Q.** And the EC50 (BG505 N279A [36])?
**A.** Its EC50 is 25.4 µg/mL.

**Q.** And the EC50 (BG505 N332T [37])?
**A.** The EC50 was 0.2 µg/mL.

**Q.** And the EC50 (JR-CSF N362A [24])?
**A.** The EC50 was 0.327 µg/mL.

**Q.** And the EC50 (JR-CSF T373A)?
**A.** The EC50 was 0.456 µg/mL.

**Q.** And the EC50 (BG505 N363A [27])?
**A.** Its EC50 is 0.9 µg/mL.

**Q.** What about the EC50 (BG505 R476A [29]) of the same substance?
**A.** The EC50 was 0.5 µg/mL.

**Q.** What about the EC50 (BG505 K282A [31]) of the same substance?
**A.** Its EC50 is 0.6 µg/mL.

**Q.** And the EC50 (BG505 L179A)?
**A.** Its EC50 is 0.6 µg/mL.

**Q.** What about the EC50 (BG505 G366A) of the same substance?
**A.** The EC50 was 0.7 µg/mL.

**Q.** And the EC50 (BG505 G367A)?
**A.** Its EC50 is 9.4 µg/mL.

From patent publication US20200165324A1
